Earlier results on 1 substance are cited in publication PMC6359047.

The data set deals with MT1-MMP (Homo sapiens) (UniProt P50281).

Chain of TIMP-1 (P01033 24-207): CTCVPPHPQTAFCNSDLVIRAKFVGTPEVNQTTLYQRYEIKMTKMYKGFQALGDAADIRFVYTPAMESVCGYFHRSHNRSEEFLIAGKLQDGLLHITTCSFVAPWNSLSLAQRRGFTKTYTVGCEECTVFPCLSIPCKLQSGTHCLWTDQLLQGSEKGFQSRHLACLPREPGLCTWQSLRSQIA

Regarding TIMP-1 (from UniProt P01033), the Ki was 178 nM.

For orientation: Ki means the equilibrium dissociation constant of an inhibitor or competing ligand from its target.
